Consider one molecule from article PMC7185628.

In this series the target is MERS-CoV spike protein (S) (MERS-CoV, UniProt K9N5Q8 18-1296). The series is described as follows: EMSA.
Chain of MERS-CoV spike protein (S) (K9N5Q8 18-1296): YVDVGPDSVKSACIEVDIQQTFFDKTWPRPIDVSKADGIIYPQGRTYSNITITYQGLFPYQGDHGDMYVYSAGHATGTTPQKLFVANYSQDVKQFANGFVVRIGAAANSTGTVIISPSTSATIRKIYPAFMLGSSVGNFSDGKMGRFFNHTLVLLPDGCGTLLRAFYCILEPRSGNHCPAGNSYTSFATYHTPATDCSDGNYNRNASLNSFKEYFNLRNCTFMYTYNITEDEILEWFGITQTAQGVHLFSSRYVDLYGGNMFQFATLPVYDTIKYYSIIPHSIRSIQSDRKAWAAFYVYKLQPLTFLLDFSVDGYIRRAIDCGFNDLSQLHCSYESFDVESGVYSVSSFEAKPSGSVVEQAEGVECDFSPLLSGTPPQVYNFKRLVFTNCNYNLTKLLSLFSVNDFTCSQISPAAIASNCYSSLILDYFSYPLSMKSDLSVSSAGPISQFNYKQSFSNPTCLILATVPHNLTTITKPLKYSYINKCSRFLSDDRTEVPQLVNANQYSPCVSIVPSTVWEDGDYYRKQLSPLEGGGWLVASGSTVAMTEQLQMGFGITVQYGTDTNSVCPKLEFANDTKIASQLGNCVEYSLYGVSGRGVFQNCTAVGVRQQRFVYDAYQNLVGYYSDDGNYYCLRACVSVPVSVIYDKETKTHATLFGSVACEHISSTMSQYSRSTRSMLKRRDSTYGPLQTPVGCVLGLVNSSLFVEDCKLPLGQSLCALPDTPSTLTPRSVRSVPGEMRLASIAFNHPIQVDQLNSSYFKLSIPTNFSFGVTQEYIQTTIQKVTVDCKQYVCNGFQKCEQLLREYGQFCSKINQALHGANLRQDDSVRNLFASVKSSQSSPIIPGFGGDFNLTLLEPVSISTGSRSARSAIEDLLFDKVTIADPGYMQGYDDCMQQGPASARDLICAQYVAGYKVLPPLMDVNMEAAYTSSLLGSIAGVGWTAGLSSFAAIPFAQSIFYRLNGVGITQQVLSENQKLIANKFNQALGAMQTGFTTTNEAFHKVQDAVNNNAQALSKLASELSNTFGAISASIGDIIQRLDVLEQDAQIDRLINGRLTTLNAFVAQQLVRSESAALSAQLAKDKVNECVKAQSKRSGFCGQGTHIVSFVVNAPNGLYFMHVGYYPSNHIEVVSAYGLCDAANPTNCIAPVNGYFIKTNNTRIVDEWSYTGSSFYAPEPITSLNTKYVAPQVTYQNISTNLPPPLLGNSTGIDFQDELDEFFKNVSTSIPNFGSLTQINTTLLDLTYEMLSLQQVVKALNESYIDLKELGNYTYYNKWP

B1: AIapt/FAM/SH-DNA 3WJ (MF-DNA) (structured_DNA)
DNA 1: GTGTGCATGGATAGCACGTAACGGTGTAGTAGATACGTGCGGGTAGGAAGAAAGGGAAATAGTTGTCCTGTTGTTGCCATGTGTATGTGGG
DNA 2: CCCACATACTTTGTTGATCC
DNA 3: GGATCAATCATGGCAA
modifications: 5' thiol on strand 3 (SH/3WJc)
With B1, the binding result is given as “no binding”.
